Experimental findings from doi:10.1101/2021.03.03.433722 are described below.

The experiment concerns the target MvaT F36D/M44D (P. aeruginosa) (UniProt Q9HW86). The experiment is described as follows: ITC. Background: ITC needs no label: the signal is the heat of the interaction.

As usually defined, the Kd is the free concentration of one partner at which half of the binding sites on the other are occupied at equilibrium, for simple one-to-one binding. The stoichiometry N is a count of units in the complex or per binding partner. The substance gp4 K42E/K45E (natural protein) returned a Kd of 1360 nM and a stoichiometry N of 0.52.
In the case of “gp4 of Pseudomonas phage LUZ24 (natural protein)”, the Kd came to 170 nM and the stoichiometry N came to 0.56.
